Here are results for 2 molecules from patent publication US20050282743A1, “Molecular interactions in cells” (Arbor Vita Corporation, priority 2001, published 2005).

Test [1] addresses GST-KIAA1634 PDZ domain 1 (Homo sapiens (Human)), Q5TCQ9. Kind of test: G' assay. Also: key of the grades not given here.
The target of test [2] is T1, GST-HEMBA 1003117 PDZ domain 1 (Homo sapiens (Human)), Q96JH8.
T1 chain: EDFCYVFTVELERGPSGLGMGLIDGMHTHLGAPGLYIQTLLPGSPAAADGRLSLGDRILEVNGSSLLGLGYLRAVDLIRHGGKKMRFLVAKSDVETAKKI
In words: G' assay. Also: key of the grades not given here.

Test [3] concerns the target T2, GST-PICK1 PDZ domain 1 (Bos taurus (Bovine)), Q2T9M1.
T2 chain: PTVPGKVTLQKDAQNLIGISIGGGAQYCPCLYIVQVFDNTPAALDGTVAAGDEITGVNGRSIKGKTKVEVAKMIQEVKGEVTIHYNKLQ
Kind of test: G' assay. Also: key of the grades not given here.

Test [4] deals with T3, GST-KIAA0807(S) PDZ domain 1 (Homo sapiens (Human)), Q6P0Q8.
T3 chain: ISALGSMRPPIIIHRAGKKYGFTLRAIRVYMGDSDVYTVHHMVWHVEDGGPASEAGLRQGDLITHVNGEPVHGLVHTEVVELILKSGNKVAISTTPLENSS
Kind of test: G' assay. Also: key of the grades not given here.

Test [5] concerns the target T4, GST-PTPL1 PDZ domain 4 (Homo sapiens (Human)), Q12923.
T4 chain: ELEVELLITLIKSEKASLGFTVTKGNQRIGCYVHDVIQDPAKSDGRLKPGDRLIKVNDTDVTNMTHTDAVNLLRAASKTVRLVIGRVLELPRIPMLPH
In words: G' assay. Also: key of the grades not given here.

The target in test [6] is T5, GST-FLJ 10324 PDZ domain 1 [GST: P08515].
T5 chain: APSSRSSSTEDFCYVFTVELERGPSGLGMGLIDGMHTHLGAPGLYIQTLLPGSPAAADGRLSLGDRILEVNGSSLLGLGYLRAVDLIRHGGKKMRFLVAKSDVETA
Kind of test: G' assay. Also: key of the grades not given here.

In test [7] the target is GST-KIAA807 [GST: P08515]. Kind of test: G' assay. Also: key of the grades not given here.
Chain of GST-KIAA807 [GST: P08515] (P08515 whole entry, the tested form may be a part): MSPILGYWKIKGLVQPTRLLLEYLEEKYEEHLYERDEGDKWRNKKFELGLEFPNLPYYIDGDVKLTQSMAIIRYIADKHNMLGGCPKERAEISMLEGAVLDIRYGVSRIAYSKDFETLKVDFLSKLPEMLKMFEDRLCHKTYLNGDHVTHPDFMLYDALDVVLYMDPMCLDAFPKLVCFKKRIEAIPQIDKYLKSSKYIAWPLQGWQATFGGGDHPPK
For test [8], the target named is T6, GST-ZO-1 PDZ domain 2 (Rattus norvegicus (Rat)), A0A0G2.
T6 chain: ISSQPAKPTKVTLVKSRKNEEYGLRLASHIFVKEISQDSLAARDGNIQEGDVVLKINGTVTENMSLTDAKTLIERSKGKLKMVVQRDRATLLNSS
In words: G' assay.

In test [9] the target is T5, GST-FLJ 10324 PDZ domain 1 [GST: P08515]. In words: G assay titration, PDZ 1 ug/ml.
Test [10] addresses GST-KIAA1634 PDZ domain 1 (Homo sapiens (Human)), Q5TCQ9. Kind of test: G assay titration, PDZ 5 ug/ml.
The target in test [11] is T1, GST-HEMBA 1003117 PDZ domain 1 (Homo …). In words: G assay titration, PDZ 5 ug/ml.
In test [12] the target is T2, GST-PICK1 PDZ domain 1 (Bos taurus …). Kind of test: G assay titration, PDZ 5 ug/ml.
Test [13] addresses T3, GST-KIAA0807(S) PDZ domain 1 (Homo …). In words: G assay titration, PDZ 5 ug/ml.
Test [14] concerns the target T4, GST-PTPL1 PDZ domain 4 (Homo sapiens …). Kind of test: G assay titration, PDZ 5 ug/ml.
The target in test [15] is GST-KIAA807 [GST: P08515]. Kind of test: G assay titration, PDZ 5 ug/ml.
In test [16] the target is T7, GST-BAI-1 Associated Protein PDZ domain 2 (Mus musculus (Mouse)), Q6RHR9. In words: G assay titration, PDZ 0.1 ug/ml.
T7 sequence (Q6RHR9 455-558): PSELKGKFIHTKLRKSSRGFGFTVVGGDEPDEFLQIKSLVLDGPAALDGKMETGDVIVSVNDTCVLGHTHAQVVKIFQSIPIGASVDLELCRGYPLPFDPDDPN
In test [17] the target is T8, GST-NOS1 PDZ domain 1 (Homo sapiens (Human)), P29475.
T8 chain: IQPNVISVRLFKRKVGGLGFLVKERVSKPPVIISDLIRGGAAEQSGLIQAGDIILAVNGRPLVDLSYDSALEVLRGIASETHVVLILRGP
Kind of test: G' assay. Particulars: remark: other sources report otherwise.

Test [18] has as its target T9, GST-Shank 1 PDZ domain 1 (Homo sapiens (Human)), Q9UPX8.
T9 chain: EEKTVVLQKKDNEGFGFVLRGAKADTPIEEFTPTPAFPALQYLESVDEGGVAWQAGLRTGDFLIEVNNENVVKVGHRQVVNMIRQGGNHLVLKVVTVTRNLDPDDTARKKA
Kind of test: G' assay.

Test [19] deals with T10, GST-NeDLG PDZ domains 1, 2, Q92796.
T10 chain: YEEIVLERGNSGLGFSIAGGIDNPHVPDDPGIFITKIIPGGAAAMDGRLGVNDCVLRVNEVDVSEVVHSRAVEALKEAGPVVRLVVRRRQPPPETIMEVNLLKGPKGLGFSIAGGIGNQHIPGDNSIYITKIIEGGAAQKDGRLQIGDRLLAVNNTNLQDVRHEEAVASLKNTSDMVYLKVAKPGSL
Kind of test: G' assay.

In test [20] the target is GST-PIST PDZ domain 1 (Mus musculus (Mouse)), Q8BH60. In words: G' assay. Also: key of the grades not given here.
Test [21] concerns the target T7, GST-BAI-1 Associated Protein PDZ domain …. In words: G' assay.
The target of test [22] is T11, GST-EZRIN Binding Protein 50 PDZ domain 1 (Homo sapiens (Human)), O14745.
T11 chain: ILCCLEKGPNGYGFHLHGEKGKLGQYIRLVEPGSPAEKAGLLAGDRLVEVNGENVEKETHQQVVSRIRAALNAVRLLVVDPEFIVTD
Kind of test: G' assay.

For test [23], the target named is GST-DLG1 PDZ domains 1, 2 (Homo sapiens), Q12959. Kind of test: G' assay. Also: key of the grades not given here.
In test [24] the target is T12, GST-Shank 3 PDZ domain 1 (human (hypothetical, computer cloned)), Q9BYB0.
T12 chain: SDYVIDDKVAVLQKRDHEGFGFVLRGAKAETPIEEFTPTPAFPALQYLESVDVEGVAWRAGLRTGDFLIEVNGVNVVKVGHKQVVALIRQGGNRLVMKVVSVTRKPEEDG
Kind of test: G' assay.

The target in test [25] is T13, GST-ZO-2 PDZ domain 1 (Homo sapiens (Human)), Q9UDY2.
T13 chain: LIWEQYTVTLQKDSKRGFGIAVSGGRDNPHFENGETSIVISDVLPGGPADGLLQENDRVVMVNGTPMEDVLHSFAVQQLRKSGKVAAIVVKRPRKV
Kind of test: G' assay.

Test [26] deals with T14, GST-MUPP1 PDZ domain 10 (Homo sapiens (Human)), O75970.
T14 chain: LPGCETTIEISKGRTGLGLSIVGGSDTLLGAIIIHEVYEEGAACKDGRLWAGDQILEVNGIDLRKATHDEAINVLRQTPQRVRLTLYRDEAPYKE
Kind of test: G' assay.

Test [27] has as its target T15, GST-EZRIN Binding Protein 50 PDZ domain 2 (Homo sapiens (Human)), O14745.
T15 chain: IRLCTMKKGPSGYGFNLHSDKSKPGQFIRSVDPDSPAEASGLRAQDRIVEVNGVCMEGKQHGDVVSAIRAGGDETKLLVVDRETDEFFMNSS
In words: G' assay.

Test [28] has as its target T16, GST-INADL PDZ domain 8 (Homo sapiens (Human)), Q8NI35.
T16 chain: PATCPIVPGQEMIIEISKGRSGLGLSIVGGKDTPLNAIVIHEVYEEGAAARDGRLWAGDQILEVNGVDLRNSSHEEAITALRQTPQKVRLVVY
Kind of test: G' assay.

The target in test [29] is T17, GST-ZO-1 PDZ domain 1 (Rattus norvegicus (Rat)), A0A0G2.
T17 chain: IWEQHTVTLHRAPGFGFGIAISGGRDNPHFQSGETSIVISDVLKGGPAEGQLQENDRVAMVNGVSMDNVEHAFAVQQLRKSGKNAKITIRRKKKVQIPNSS
In words: G' assay.

The target in test [30] is T18, GST-Atrophin-1 Interacting Protein PDZ domain 1 (Rattus norvegicus (Rat)), O88382. Kind of test: G' assay. Also: key of the grades not given here.
T18 sequence (O88382 408-511): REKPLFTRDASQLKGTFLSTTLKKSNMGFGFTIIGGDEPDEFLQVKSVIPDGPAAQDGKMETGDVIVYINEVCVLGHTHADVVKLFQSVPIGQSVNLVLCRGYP
In test [31] the target is T19, GST-Outer Membrane PDZ domain 1 (Homo sapiens (Human)), P57105.
T19 chain: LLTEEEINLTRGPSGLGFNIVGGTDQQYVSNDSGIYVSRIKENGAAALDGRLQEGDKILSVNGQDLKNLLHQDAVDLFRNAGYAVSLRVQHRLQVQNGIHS
Kind of test: G' assay.

For test [32], the target named is GST-PSD95 PDZ domains 1, 2, 3 (Homo sapiens), P78352. Kind of test: G' assay. Also: key of the grades not given here.
Chain of GST-PSD95 PDZ domains 1, 2, 3 (Homo sapiens), P78352 (P78352 62-395): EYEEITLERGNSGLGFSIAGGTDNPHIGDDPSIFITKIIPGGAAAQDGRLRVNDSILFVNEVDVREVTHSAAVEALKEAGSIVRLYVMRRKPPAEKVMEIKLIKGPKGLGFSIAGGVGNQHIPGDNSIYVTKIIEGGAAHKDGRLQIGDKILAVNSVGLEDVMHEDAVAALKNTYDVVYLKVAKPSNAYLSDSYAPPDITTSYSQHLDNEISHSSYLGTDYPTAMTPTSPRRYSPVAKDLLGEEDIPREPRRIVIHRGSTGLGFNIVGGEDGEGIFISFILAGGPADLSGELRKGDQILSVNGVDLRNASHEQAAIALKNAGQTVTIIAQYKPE
For test [33], the target named is T20, GST-TIP1 PDZ domain 1 (Table 9 insert) (Homo sapiens (Human)), O14907.
T20 chain: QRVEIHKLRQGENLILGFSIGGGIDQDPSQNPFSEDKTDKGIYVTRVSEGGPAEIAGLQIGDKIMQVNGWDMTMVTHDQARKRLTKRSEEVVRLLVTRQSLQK
In words: G' assay.

The target of test [34] is T9, GST-Shank 1 PDZ domain 1 (Homo sapiens …). In words: G assay titration, PDZ 1 ug/ml.
Test [35] deals with T13, GST-ZO-2 PDZ domain 1 (Homo sapiens …). Kind of test: G assay titration, PDZ 1 ug/ml.
For test [36], the target named is T14, GST-MUPP1 PDZ domain 10 (Homo sapiens …). In words: G assay titration, PDZ 1 ug/ml.
Test [37] has as its target T17, GST-ZO-1 PDZ domain 1 (Rattus …). Kind of test: G assay titration, PDZ 1 ug/ml.
Test [38] has as its target T18, GST-Atrophin-1 Interacting Protein PDZ …. In words: G assay titration, PDZ 1 ug/ml.
The target of test [39] is GST-PIST PDZ domain 1 (Mus musculus (Mouse)), Q8BH60. Kind of test: G assay titration, PDZ 0.5 ug/ml.
For test [40], the target named is GST-KIAA1634 PDZ domain 1 (Homo sapiens (Human)), Q5TCQ9. In words: G assay titration, PDZ 0.3 ug/ml.
Chain of GST-KIAA1634 PDZ domain 1 (Homo sapiens (Human)), Q5TCQ9 (Q5TCQ9 401-502): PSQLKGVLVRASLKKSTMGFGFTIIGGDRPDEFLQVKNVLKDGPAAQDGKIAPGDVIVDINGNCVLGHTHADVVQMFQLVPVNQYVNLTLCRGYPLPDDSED
In test [41] the target is T13, GST-ZO-2 PDZ domain 1 (Homo sapiens …). In words: G assay with desipramine or nortryptilline against no drug.

B1: Dopamine transporter (peptide)
peptide: RELVDRGEVRQFTLRHWLKV
modifications: not checked
Usually Kd stands for a measure of binding affinity in units of concentration. Low readings indicate higher affinity, high ones lower affinity. Take B1: the Classification in test [1] came to 3 A450 class; in test [2] it was 5 A450 class; in test [3], 2 A450 class; in test [4], 4 A450 class; in test [5], 3 A450 class; in [6] it was 5 A450 class. Moreover, the figures for the Classification in test [7] and in [8] were 4 A450 class and 1 A450 class, respectively. The Kd in test [9] amounted to 0.3 µM; in [10], 0.9 µM; in test [11], 0.3 µM; in test [12] it was 0.9 µM; in test [13], 0.4 µM; in [14], 0.4 µM. Besides, the Kd in [15] was 0.4 µM.

B2: DNAM-1 (peptide)
peptide: TREDIYVNYPTFSRRPKTRV
modifications: not checked
In the case of B2, the Kd in test [16] turned out to be 4 µM; in test [34] it was 5 µM; in [35], 3 µM; in [36] it was 2.5 µM; in test [37], 5 µM; in [38], 3 µM. Also, the Kd in test [39] was 2.5 µM; in test [40] it was 1 µM; in test [13], 2 µM; in test [15], 2 µM. Besides, the Classification was 1 A450 class in [17]; 5 A450 class in [18]; 5 A450 class in test [1]; 2 A450 class in test [19]; 4 A450 class in [20]; 5 A450 class in test [21]. Besides, the Classification in test [22] was determined as 1 A450 class; in test [23], 1 A450 class; in test [24], 2 A450 class; in test [25], 3 A450 class; in test [26], 4 A450 class; in [4], 3 A450 class. Also, the Classification came out at 1 A450 class in test [27]; 5 A450 class in test [28]; 2 A450 class in [29]; 3 A450 class in test [30]; 1 A450 class in test [31]; 3 A450 class in [7]. For the same molecule, the Classification was found to be 2 A450 class in test [32] and 1 A450 class in test [33]. In [41], the fold decrease of binding with drug came to 4.2 fold.
